# Experimental data from patent US20240132624A1 (Ablynx, published 2024).
# Substitutions are numbered along the chain they refer to.
# B1: T0263018B11 G54L (VHH, name in Kabat numbering)
# VHH: EVQLVESGGGVVQPGGSLRLSCAASGFTFSSYAMYWVRQAPGKGLEWVSAISSGLGSTDYADSVKGRFTISRDNSKNTLYLQMNSLRPEDTALYYCAADTLYTSLTWYSYWGQGTLVTVSS
# notes: FLAG3-His6 tagged
# B2: T0263018B11 S30Q (VHH, name in Kabat numbering)
# VHH: B1 VHH with S30Q, L55G
# notes: FLAG3-His6 tagged
# B3: T0263018B11 S30E (VHH, name in Kabat numbering)
# VHH: B1 VHH with S30E, L55G
# notes: FLAG3-His6 tagged
# B4: T0263018B11 S31N (VHH, name in Kabat numbering)
# VHH: B1 VHH with S31N, L55G
# notes: FLAG3-His6 tagged
# B5: T0263018B11 G54P (VHH, name in Kabat numbering)
# VHH: B1 VHH with L55P
# notes: FLAG3-His6 tagged
# B6: T0263018B11 S30D (VHH, name in Kabat numbering)
# VHH: B1 VHH with S30D, L55G
# notes: FLAG3-His6 tagged
# B7: T0263018B11 S30T (VHH, name in Kabat numbering)
# VHH: B1 VHH with S30T, L55G
# notes: FLAG3-His6 tagged
# B8: T0263018B11 S30N (VHH, name in Kabat numbering)
# VHH: B1 VHH with S30N, L55G
# notes: FLAG3-His6 tagged
# B9: T0263018B11 S30K (VHH, name in Kabat numbering)
# VHH: B1 VHH with S30K, L55G
# notes: FLAG3-His6 tagged
# B10: T0263018B11 S30G (VHH, name in Kabat numbering)
# VHH: B1 VHH with S30G, L55G
# notes: FLAG3-His6 tagged
# B11: T0263018B11 L100aM (VHH, name in Kabat numbering)
# VHH: B1 VHH with L55G, L105M
# notes: FLAG3-His6 tagged
# B12: T0263018B11 S31K (VHH, name in Kabat numbering)
# VHH: B1 VHH with S31K, L55G
# notes: FLAG3-His6 tagged
# B13: T0263018B11 G55D (VHH, name in Kabat numbering)
# VHH: B1 VHH with L55G, G56D
# notes: FLAG3-His6 tagged
# Target: T1, human FcRn/b2M (human, UniProt P61769 21-119, biotinylated)
# T1 construct: bought recombinant biotinylated protein (ACRO FCM-H82W4 or Immunitrack ITF01); also called hFcRn; hFcRn/hb2M
# Assay: SPR pH 6.0;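 note: surface plasmon resonance kinetics at 25 °C, diluted periplasmic extracts injected over immobilized ligand surfaces, 120 s association then 600–3600 s dissociation, running buffer containing 150 mM NaCl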
# Method: (§1) All kinetic measurements have been performed on ProteOn XPR36 (BioRad Laboratories, Inc.), MASS-2 (Sierra sensors, Gmbh) or SPR-32 (Bruker Corporation). […] The phytip purified periplasmic extracts were diluted 1:10 in running buffer (CPA+150 mM NaCl+0.005% Tw20 at pH 5.5, pH 6.0 or pH 7.4) and injected over the ligand surfaces (association: 120 s at 45 μL/min; dissociation: 600s-3600 s at 45 μL/min). Experiments were carried out at 25° C.
row,koff [s⁻¹],Binder
1,0.0016,B1
2,0.00085,B2
3,0.0019,B3
4,0.0034,B4
5,0.0016,B5
6,0.0032,B6
7,0.0016,B7
8,0.0019,B8
9,0.0078,B9
10,0.00066,B10
11,0.015,B11
12,0.0013,B12
13,0.0017,B13

# Target: T2, cyno FcRn/b2M (cyno, UniProt Q8SPV9 24-297; Q8SPW0 21-119, biotinylated)
# T2 construct: bought recombinant biotinylated protein (Immunitrack ITF05 or ACRO FCM-C82W5); also called cFcRn; cFcRn/cb2M
# Assay: SPR pH 6.0;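 note: surface plasmon resonance kinetics at 25 °C, diluted periplasmic extracts injected over immobilized ligand surfaces, 120 s association then 600–3600 s dissociation, running buffer containing 150 mM NaCl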
# Method: as §1
# T2 sequence (Q8SPV9 24-297 limits assumed, chain 1 of 2): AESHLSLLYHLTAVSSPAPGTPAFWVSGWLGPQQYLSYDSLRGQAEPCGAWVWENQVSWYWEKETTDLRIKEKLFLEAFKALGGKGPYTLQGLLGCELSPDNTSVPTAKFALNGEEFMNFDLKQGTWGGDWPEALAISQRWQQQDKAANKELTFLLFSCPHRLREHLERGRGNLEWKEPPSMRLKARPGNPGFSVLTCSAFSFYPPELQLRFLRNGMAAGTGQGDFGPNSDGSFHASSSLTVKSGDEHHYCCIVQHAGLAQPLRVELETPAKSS
# T2 sequence (Q8SPW0 21-119 limits assumed, chain 2 of 2): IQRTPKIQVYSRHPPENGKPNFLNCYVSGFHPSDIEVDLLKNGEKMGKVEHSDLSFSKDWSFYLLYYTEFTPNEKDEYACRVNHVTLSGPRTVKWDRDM
row,koff [s⁻¹],Binder
1,0.0017,B1
2,0.00055,B2
3,0.0016,B3
4,0.0018,B4
5,0.0017,B5
6,0.0026,B6
7,0.0014,B7
8,0.0013,B8
9,0.003,B9
10,0.00054,B10
11,0.013,B11
12,0.0011,B12
13,0.0013,B13

# Target: T1, human FcRn/b2M
# Assay: SPR off-rate; pH 7.4 vs pH 6.0;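 note: surface plasmon resonance with diluted periplasmic extracts flowed over ligand surfaces, 120 s association and 600–3600 s dissociation at 25 °C, running buffer containing 150 mM NaCl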
# Method: as §1
row,kd ratio pH 7.4/6.0,Binder
1,26,B1
2,42,B2
3,37,B3
4,50,B4
5,21,B5
6,41,B6
7,37,B7
8,42,B8
9,9,B9
10,38,B10
11,42,B11
12,37,B12
13,41,B13

# Target: T2, cyno FcRn/b2M
# Assay: SPR off-rate; pH 7.4 vs pH 6.0;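 note: surface plasmon resonance with diluted periplasmic extracts flowed over ligand surfaces, 120 s association and 600–3600 s dissociation at 25 °C, running buffer containing 150 mM NaCl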
# Method: as §1
row,kd ratio pH 7.4/6.0,Binder
1,35,B1
2,47,B2
3,46,B3
4,69,B4
5,24,B5
6,65,B6
7,44,B7
8,46,B8
9,18,B9
10,35,B10
11,41,B11
12,40,B12
13,54,B13

# Target: T1, human FcRn/b2M
# Assay: SPR pH 7.4;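 note: surface plasmon resonance kinetics, periplasmic extracts diluted 1:10 flowed over immobilized target at 25 °C, 120 s association then 600–3600 s dissociation, buffer with 150 mM NaCl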
# Method: as §1
row,koff [s⁻¹],Binder
1,0.041,B1
2,0.035,B2
3,0.071,B3
4,0.17,B4
5,0.033,B5
6,0.13,B6
7,0.059,B7
8,0.082,B8
9,0.069,B9
10,0.025,B10
11,0.62,B11
12,0.048,B12
13,0.07,B13

# Target: T2, cyno FcRn/b2M
# Assay: SPR pH 7.4;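 note: surface plasmon resonance kinetics, periplasmic extracts diluted 1:10 flowed over immobilized target at 25 °C, 120 s association then 600–3600 s dissociation, buffer with 150 mM NaCl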
# Method: as §1
row,koff [s⁻¹],Binder
1,0.06,B1
2,0.026,B2
3,0.073,B3
4,0.12,B4
5,0.041,B5
6,0.17,B6
7,0.062,B7
8,0.061,B8
9,0.055,B9
10,0.019,B10
11,0.51,B11
12,0.044,B12
13,0.07,B13
